Source: patent publication US20190248900A1 (Y BIOLOGICS, published 2019)

T1: rat PD1 protein (rat, UniProt D3ZIN8 25-169)
T1 construct: also called rat PD-1 proteins
T1 sequence: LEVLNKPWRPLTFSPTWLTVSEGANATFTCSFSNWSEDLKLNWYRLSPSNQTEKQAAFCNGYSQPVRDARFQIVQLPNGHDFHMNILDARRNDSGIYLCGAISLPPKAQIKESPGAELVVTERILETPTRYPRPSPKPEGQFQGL


What was measured:
[1] = molecular target: T2, PD1-hFc (human, UniProt Q15116 25-170); assay: competition ELISA: PD1-Fc coated, PDL1-His as binder, antibody as competitor
T2 construct: extracellular domain; also called PD1-hFc protein; Human PD-1-Fc (S1420, Y-Biologics)
Procedure: (§1) Human PD-1-Fc (S1420, Y-Biologics) or PD-L2-Fc (#10292-H02H, Sino) was added to wells of a 96-well immuno microplate (#439454, Thermo) and then washed three times with PBS containing 0.05% tween-20 (#P9416, Sigma-Aldrich), followed by allowing to stand in a cleaning solution containing 4% skim milk (#232120, Becton, Dickinson and Company) at room temperature for 1 hour to block non-specific binding. […] After the resulting product was subjected to the same washing method as above, the anti-Biotin-His antibody (#MA1-21315-BTIN, Thermo) diluted to 1:2000 was added to the well of the microplate, allowed to react at room temperature for 1 hour, streptavidin poly-HRP antibody (#21140, Pierce) diluted to 1:5000 was added to the well of microplate, reacted at room temperature for 1 hour and then washed in the same manner. 100 ul of a TMB substrate solution (#T0440, Sigma-Aldrich) was added to the reaction product, light was shielded, and the reaction product was allowed to stand at room temperature for 3 minutes, 50 μL of 2.5 M sulfuric acid (#S1478, Samchun) was added to stop the reaction, and absorbance was measured at 450 nm using a spectrophotometer (*GM3000, Glomax® Discover System Promega).

[2] = molecular target: T3, human PD-1 (NM_005018.2) over-expressed on cells (human, UniProt Q15116 25-288); assay: flow cytometry on cells over-expressing human PD-1, fit of Geometric Mean
T3 construct: whole, on cells; also called human PD-1 over-expressed on the cell surface; Jurkat cell line highly expressing human PD-1

[3] = molecular target: T2, PD1-hFc; assay: SPR ProteOn XPR36, PD1-hFc immobilised, antibody as analyte
Procedure: (§2) A ProteOn XPR36 (BioRad) instrument was used. The GLC sensor chip (BioRad) was mounted on the instrument and washed with PBST buffer, and the carboxymethyldextran surface was activated with an EDC/sulfo-NHS mixed solution. PD1-hFc dissolved at a concentration of 5 ug/ml in a 10 mM sodium acetate buffer solution (pH 5.0) was injected and immobilized on the GLC sensor chip.
(§3) In order to deactivate the activated carboxyl groups that remain unreacted with the PD1 protein, 1 M ethanolamine was flowed and 10 mM glycine (pH 2.0) was injected in order to wash proteins that remain unbound to the sensor chip.
(§4) The equilibrium dissociation constant (KD) was calculated by plotting and fitting the sensogram data in the equilibrium state depending on concentration.

[4] = molecular target: T3, human PD-1 (NM_005018.2) over-expressed …; assay: flow cytometry, 18 nM, over IgG
[5] = molecular target: T4, monkey PD1 protein (monkey); assay: SPR ProteOn XPR36; format for monkey PD1 not described
T4 construct: also called monkey PD-1 proteins

[6] = molecular target: T2, PD1-hFc; assay: SPR ProteOn XPR36, PD1-hFc immobilised, antibody as analyte; parent antibody, Example 4 text (FIG. 9), not the Table 12 run
Procedure: as §2, §3, §4

[7] = molecular target: T5, PD-1-His (S1352, Y-Biologics) (UniProt Q15116 25-170, limits assumed); assay: competition ELISA: PD-L2-Fc coated, PD-1-His as binder, antibody as competitor
T5 construct: not shown: His tag
Procedure: as §1

[8] = molecular target: T3, human PD-1 (NM_005018.2) over-expressed …; assay: cell-based or functional assay
[9] = molecular target: T1, rat PD1 protein; assay: SPR ProteOn XPR36; format for rat PD1 not described
[10] = molecular target: T2, PD1-hFc; assay: ProteOn XPR36; legend names PD1-hFc, the sheet names the immobilised protein PD-1 C-his

Row | Binder | IC50 [1] | Bmax [2] | Kd [2] | Kd [3] | koff [3] | kon [3] | Fold [4] | Kd [5] | koff [5] | kon [5] | Kd [6] | IC50 [7] | EC50 [8] | Kd [9] | koff [9] | kon [9] | Kd [10] | koff [10]
1 | PD1-49A2 (antibody, V domains shown, scFv-phage in the screening ELISA; whole IgG in the other assays; also called Parent 49A2) VH: QVQLVESGGGVVQPGRSLRLSCAASGFTFSSYAMHWVRQAPGKGLEWVAVISYDGSNKYYADSVKGRFTISRDNPKNTLYLQMNSLRAEDTAVYYCTTTTFDSWGRGTLVTVSS VL: DIVMTQSPLSLPVTPGEPASISCRSSQSLFDSDDGNTYLDWYLQKPGQSPQLLIYTLSHRASGVPDRFSGSGSGTDFTLKISRVEAEDVGIYYCLQRMGFPYTFGQGTKVEIK | 3.92 nM | 3000 | 38.2 nM | 0.237 nM | 9.37e-05 s⁻¹ | 395000 M⁻¹ s⁻¹ | 222 | 0.001 nM | 1e-07 s⁻¹ | 168000 M⁻¹ s⁻¹ | 0.019 nM | 59.7 nM |  |  |  |  |  | 
2 | PD1-45D6 (antibody, V domains shown, scFv-phage in the screening ELISA; whole IgG in the other assays) VH: QVQLVESGGGVVQPGRSLRLSCAASGFTFSSYAMHWVRQVPGKGLEWVAVISYDGNDKYYADSVKGRFTISRDNSKNTLYLQMNSLRAEDTAVYYCVPTTFEYWGQGSQVTVSS VL: DIVMTQTPLSLPVTPGEAASISCRSSQSLLDSDDGKTYLDWYLQKPGQSPQLLIYTLSYRASGVPDRFSGSGSGTEFNLRISRVEAEDVGIYYCMQRVEFPFTFGQGTKLDIK | 3.72 nM | 1640 | 2.7 nM |  |  | 270000 M⁻¹ s⁻¹ | 286 | 0.001 nM | 1e-07 s⁻¹ | 154000 M⁻¹ s⁻¹ |  | 49.6 nM | 1.88 nM | 2.39 nM | 0.000133 s⁻¹ | 55400 M⁻¹ s⁻¹ | < 0.001 nM | < 1.07e-07 s⁻¹
